US20120039803A1, “PRETARGETING KIT, METHOD AND AGENTS USED THEREIN” (KONINKLIJKE PHILIPS ELECTRONICS N.V., priority 2009, published 2012)

Tested on: human colon cancer cell line LS174T
Settings: mouse, in vivo

## Rtx-TCO: TCO-modified rituximab for control in vivo experiments; lacks specificity for TAG72
  tumor-to-blood ratio (T/B): 0.6±0.0
  tumor-to-muscle ratio (T/M): 4.9±0.8
